Test results from PMC9889962 (Antibody Therapeutics, 2023).

Legend:
[1] = molecular target: SARS-CoV-2 Omicron B.1.1.529 RBD only (SARS-CoV-2, UniProt P0DTC2); assay: SPR; conditions: both partners purified
[2] = molecular target: SARS-CoV-2 Alpha variant B.1.1.7, S1 subunit (SARS-CoV-2); assay: SPR; conditions: both partners purified

B1: LiVE-Longer YTE chimera (ACE-2 LVE/STR-YTE fusion protein) (Fc fusion)
chain: QSTIEEQAKLFLDKFNVEAEDLFYQSSLASWNYNTNITEENVQNMNNAGDKWSAFLKEQSTLAQMYPLQEIQELTVKLQLQALQQNGSSVLSEDKSKRLNTILNTMSTIYSTGKVCNPDNPQECLLLEPGLNEIMANSLDYNERLWAWESWRSEVGKQLRPLYEEYVVLKNEMARANHYEDYGDYWRGDYEVNGVDGYDYSRGQLIEDVEHTFEEIKPLYEHLHAYVRAKLMNAYPSYISPIGCLPAHLLGDMWGRFWTNLYSLTVPFGQKPNIDVTDAMVDQAWDAQRIFKEAEKFFVSVGLPNMTQGFWENSMLTDPGNVQKAVCHPTAWDLGKGDFRILMCTKVTMDDFLTAHHEMGHIQYDMAYAAQPFLLRNGANEGFHEAVGEIMSLSAATPKHLKSIGLLSPDFQEDNETEINFLLKQALTIVGTLPFTYMLEKWRWMVFKGEIPKDQWMKKWWEMKREIVGVVEPVPHDETYCDPASLFHVSNDYSFIRYYTRTLYQFQFQEALCQAAKHEGPLHKCDISNSTEAGQKLFNMLRLGKSEPWTLALENVVGAKNMNVRPLLNYFEPLFTWLKDQNKNSFVGWSTDWSPYADQSIKVRISLKSALGDKAYEWNDNEMYLFRSSVAYAMRQYFLKVKNQMILFGEEDVRVANLKPRISFNFFVTAPKNVSDIIPRTEVEKAIRMSRSRINDAFRLNDNSLEFLGIQPTLGPPNQPPVS
- Kd [1]: 0.402 nM
- Kd [2]: 0.093 nM
